Test [1] has as its target T1, AAV9P31 capsid (adeno-associated virus 9 variant with the 7-mer WPTSYDA inserted in VP3 VR-VIII) (adeno-associated virus 9, UniProt Q6JC40 1-736, WPTSYDA inserted between Q588 and A589).
T1 construct: Assembled icosahedral virus particle carrying a GFP genome; capsids made from a RepCap plasmid usually hold VP1, VP2 and VP3 (surmise); also called AAV9P31 particles; AAV9P31 virion; source: HEK293T, triple-plasmid transfection, purified (iodixanol gradient ultracentrifugation)
Briefly: cryo-EM structure; AAV9P31 on the grid, Car4 (W22-S277) added and incubated for 5 minutes; icosahedral reconstruction and block-based reconstruction of the 3-fold axis blocks. Conditions: both partners purified.

In test [2] the target is T1, AAV9P31 capsid (adeno-associated virus …). In words: SPR; BIAcore 8K; AAV9P31 particles immobilised on a CM5 chip by amide coupling (sodium acetate pH 4.0); WT or mutated Car4 proteins flowed over at 30 ul/min, 25 °C, PBST; regeneration with 10 mM glycine pH 2.0. As to conditions: both partners purified. For orientation: In SPR one partner is held on a chip, and binding of the other changes the refractive index at the surface.

Substitutions are numbered along the chain they refer to. Names may count otherwise.

The record followed here is publication PMC10868842, “Structural basis of the recognition of adeno-associated virus by the neurological system-related receptor carbonic anhydrase IV” (PLOS Pathogens, 2024).

B1: Mus musculus carbonic anhydrase IV (Car4), amino acids W22 to S277 (receptor)
chain: WCYEIQTKDPRSSCLGPEKWPGACKENQQSPINIVTARTKVNPRLTPFILVGYDQKQQWPIKNNQHTVEMTLGGGACIIGGDLPARYEAVQLHLHWSNGNDNGSEHSIDGRHFAMEMHIVHKKLTSSKEDSKDKFAVLAFMIEVGDKVNKGFQPLVEALPSISKPHSTSTVRESSLQDMLPPSTKMYTYFRYNGSLTTPNCDETVIWTVYKQPIKIHKNQFLEFSKNLYYDEDQKLNMKDNVRPLQPLGKRQVFKS
notes: carbonic anhydrase IV (Car4), Mus musculus, residues 22-277 (W22 to S277); the functional rows use this molecule for Car4; also called wt Car4; truncated Car4 (22-277); not shown: GST, N-terminal, cleaved
Usually stoichiometry N stands for the number of molecules, sites or subunits per partner or assembly. One may read the Kd as the equilibrium constant for the complex coming apart. A lower Kd goes with tighter binding. For B1, the “stoichiometry N” value in test [1] was about 3 Car4 per virion. The molecule further gave a Kd in test [2] of 106 nM.

B2: Car4 (22-277) V72S (mouse residue changed to its hCar4 counterpart) (receptor, Mus musculus, UniProt Q64444 22-277, looked up)
chain: B1 chain with V51S
notes: carbonic anhydrase IV (Car4), Mus musculus, residues 22-277; also called V72S_(Car4); source: E. coli BL21 (DE3), purified as the wild type; not shown: GST, N-terminal, cleaved
In test [2], B2 displayed a Kd of 60.7 nM.

B3: Car4 (22-277) T92A (receptor, Mus musculus, UniProt Q64444 22-277, looked up)
chain: B1 chain with T71A
notes: carbonic anhydrase IV (Car4), Mus musculus, residues 22-277; also called T92A_(Car4); source: E. coli BL21 (DE3), purified as the wild type; not shown: GST, N-terminal, cleaved
Take B3: the Kd in test [2] was 379 nM.

B4: Car4 (22-277) E90M (mouse residue changed to its hCar4 counterpart) (receptor, Mus musculus, UniProt Q64444 22-277, looked up)
chain: B1 chain with E69M
notes: carbonic anhydrase IV (Car4), Mus musculus, residues 22-277; also called E90M_(Car4); source: E. coli BL21 (DE3), purified as the wild type; not shown: GST, N-terminal, cleaved
Consider B4, for which the affinity in test [2], expressed as Kd, was 32.3 nM.

B5: Car4 (22-277) H187E (mouse residue changed to its hCar4 counterpart) (receptor, Mus musculus, UniProt Q64444 22-277, looked up)
chain: B1 chain with H166E
notes: carbonic anhydrase IV (Car4), Mus musculus, residues 22-277; also called H187E_(Car4); source: E. coli BL21 (DE3), purified as the wild type; not shown: GST, N-terminal, cleaved
B5 registered a Kd in test [2] of 0.206 nM.

B6: Car4 (22-277) I70A (receptor, Mus musculus, UniProt Q64444 22-277, looked up)
chain: B1 chain with I49A
notes: carbonic anhydrase IV (Car4), Mus musculus, residues 22-277; also called I70A_(Car4); source: E. coli BL21 (DE3), purified as the wild type; not shown: GST, N-terminal, cleaved
With B6, in test [2], the Kd was determined as 743 nM.

B7: Car4 (22-277) Q79A (receptor, Mus musculus, UniProt Q64444 22-277, looked up)
chain: B1 chain with Q58A
notes: carbonic anhydrase IV (Car4), Mus musculus, residues 22-277; also called Q79A_(Car4); source: E. coli BL21 (DE3), purified as the wild type; not shown: GST, N-terminal, cleaved
B7 gave a Kd in test [2] of 292 nM.
